Consider 1 substance from patent publication US7262005.

This assay deals with Fas receptor (UniProt P25445). Description: cell-based or functional assay.
Chain of Fas receptor (P25445 26-335 limits assumed): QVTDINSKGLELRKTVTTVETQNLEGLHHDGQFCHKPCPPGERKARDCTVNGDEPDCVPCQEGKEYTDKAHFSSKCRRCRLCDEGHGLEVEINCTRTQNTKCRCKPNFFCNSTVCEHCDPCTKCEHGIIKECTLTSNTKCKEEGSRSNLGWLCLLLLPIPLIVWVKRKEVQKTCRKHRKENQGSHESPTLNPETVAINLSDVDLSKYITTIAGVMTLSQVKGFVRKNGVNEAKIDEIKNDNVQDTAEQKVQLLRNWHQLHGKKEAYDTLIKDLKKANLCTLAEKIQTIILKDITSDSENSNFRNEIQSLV

On to CH-11 anti-Fas IgM (antibody), for which the 460/530 emission ratio, + αFas/+ chx, Jurkat cells expressing 2XUb-DEVD-Bla, 50 ng/ml anti-Fas IgM for 6 hours (460/530 emission ratio) came to 0.67 and the EC50 of caspase activation in Jurkat cells expressing 2XUb-DEVD-Bla (β-lactamase activity, CCF2 460/530 nm ratio after cycloheximide chase) was determined as 0.011 µg/mL.
